± gives the uncertainty stated by the source.
B1: Transcriptional regulator ERG, residues 117 to 197; numbered along this chain, P11308 (parent)
chain: NMTTNERRVIVPADPTLWSTDHVRQWLEWAVKEYGLPDVNILLFQNIDGKELCKMTKDDFQRLTPSYNADILLSHLHYLRE

Variants of: B1
Experiment: abundance fitness (aPCA) (normalised: wild type 0, dead -1); higher = more abundant; growth selection in yeast, the domain comes from the species named
Conditions: Homo sapiens

Variant	abundance fitness
NMTTNERRVIVPADPTLWSTDHVRQWLEWAVKEYGLPDVNILLFQNIDGKELCNMTKDDFQRLTPSYNADILLSHLHYLRE [K54N]	-0.054 ± 0.09
NMTTNERRVIVPADPTLWSTDHVRQWLEWAVKEYGLPDVNILLFQNIDGKELCCMTKDDFQRLTPSYNADILLSHLHYLRE [K54C]	-0.112 ± 0.095
NMTTNERRVIVPADPTLWSTDHVRQWLEWAVKEYGLPDVNILLFQNIDGKELCPMTKDDFQRLTPSYNADILLSHLHYLRE [K54P]	-1.08 ± 0.32
NMTTNERRVIVPADPTLWSTDHVRQWLEWAVKEYGLPDVNILLFQNIDGKELCYMTKDDFQRLTPSYNADILLSHLHYLRE [K54Y]	-0.117 ± 0.099
NMTTNERRVIVPADPTLWSTDHVRQWLEWAVKEYGLPDVNILLFQNIDGKELCEMTKDDFQRLTPSYNADILLSHLHYLRE [K54E]	0.072 ± 0.055
NMTTNERRVIVPADPTLWSTDHVRQWLEWAVKEYGLPDVNILLFQNIDGKELCLMTKDDFQRLTPSYNADILLSHLHYLRE [K54L]	-0.103 ± 0.055
NMTTNERRVIVPADPTLWSTDHVRQWLEWAVKEYGLPDVNILLFQNIDGKELCFMTKDDFQRLTPSYNADILLSHLHYLRE [K54F]	-0.227 ± 0.14
NMTTNERRVIVPADPTLWSTDHVRQWLEWAVKEYGLPDVNILLFQNIDGKELCDMTKDDFQRLTPSYNADILLSHLHYLRE [K54D]	0.021 ± 0.099
NMTTNERRVIVPADPTLWSTDHVRQWLEWAVKEYGLPDVNILLFQNIDGKELCRMTKDDFQRLTPSYNADILLSHLHYLRE [K54R]	-0.049 ± 0.046
NMTTNERRVIVPADPTLWSTDHVRQWLEWAVKEYGLPDVNILLFQNIDGKELCVMTKDDFQRLTPSYNADILLSHLHYLRE [K54V]	-0.238 ± 0.063
NMTTNERRVIVPADPTLWSTDHVRQWLEWAVKEYGLPDVNILLFQNIDGKELCTMTKDDFQRLTPSYNADILLSHLHYLRE [K54T]	-0.094 ± 0.084
NMTTNERRVIVPADPTLWSTDHVRQWLEWAVKEYGLPDVNILLFQNIDGKELCQMTKDDFQRLTPSYNADILLSHLHYLRE [K54Q]	-0.118 ± 0.12
NMTTNERRVIVPADPTLWSTDHVRQWLEWAVKEYGLPDVNILLFQNIDGKELCIMTKDDFQRLTPSYNADILLSHLHYLRE [K54I]	-0.377 ± 0.17
NMTTNERRVIVPADPTLWSTDHVRQWLEWAVKEYGLPDVNILLFQNIDGKELCWMTKDDFQRLTPSYNADILLSHLHYLRE [K54W]	-0.41 ± 0.09
NMTTNERRVIVPADPTLWSTDHVRQWLEWAVKEYGLPDVNILLFQNIDGKELCSMTKDDFQRLTPSYNADILLSHLHYLRE [K54S]	0.092 ± 0.055
NMTTNERRVIVPADPTLWSTDHVRQWLEWAVKEYGLPDVNILLFQNIDGKELCGMTKDDFQRLTPSYNADILLSHLHYLRE [K54G]	-0.028 ± 0.037
NMTTNERRVIVPADPTLWSTDHVRQWLEWAVKEYGLPDVNILLFQNIDGKELCHMTKDDFQRLTPSYNADILLSHLHYLRE [K54H]	-0.071 ± 0.099

Variant	abundance fitness
NMTTNERRVIVPADPTLWSTDHVRQWLEWAVKEYGLPDVNILLFQNIDGKELCKFTKDDFQRLTPSYNADILLSHLHYLRE [M55F]	-0.136 ± 0.12
NMTTNERRVIVPADPTLWSTDHVRQWLEWAVKEYGLPDVNILLFQNIDGKELCKRTKDDFQRLTPSYNADILLSHLHYLRE [M55R]	-0.65 ± 0.098
NMTTNERRVIVPADPTLWSTDHVRQWLEWAVKEYGLPDVNILLFQNIDGKELCKETKDDFQRLTPSYNADILLSHLHYLRE [M55E]	-1.09 ± 0.24
NMTTNERRVIVPADPTLWSTDHVRQWLEWAVKEYGLPDVNILLFQNIDGKELCKATKDDFQRLTPSYNADILLSHLHYLRE [M55A]	-0.842 ± 0.18
NMTTNERRVIVPADPTLWSTDHVRQWLEWAVKEYGLPDVNILLFQNIDGKELCKSTKDDFQRLTPSYNADILLSHLHYLRE [M55S]	-1.14 ± 0.28
NMTTNERRVIVPADPTLWSTDHVRQWLEWAVKEYGLPDVNILLFQNIDGKELCKCTKDDFQRLTPSYNADILLSHLHYLRE [M55C]	-0.278 ± 0.1
NMTTNERRVIVPADPTLWSTDHVRQWLEWAVKEYGLPDVNILLFQNIDGKELCKQTKDDFQRLTPSYNADILLSHLHYLRE [M55Q]	-0.924 ± 0.24
NMTTNERRVIVPADPTLWSTDHVRQWLEWAVKEYGLPDVNILLFQNIDGKELCKNTKDDFQRLTPSYNADILLSHLHYLRE [M55N]	-0.37 ± 0.25
NMTTNERRVIVPADPTLWSTDHVRQWLEWAVKEYGLPDVNILLFQNIDGKELCKKTKDDFQRLTPSYNADILLSHLHYLRE [M55K]	-0.315 ± 0.097
NMTTNERRVIVPADPTLWSTDHVRQWLEWAVKEYGLPDVNILLFQNIDGKELCKDTKDDFQRLTPSYNADILLSHLHYLRE [M55D]	-0.745 ± 0.34
NMTTNERRVIVPADPTLWSTDHVRQWLEWAVKEYGLPDVNILLFQNIDGKELCKITKDDFQRLTPSYNADILLSHLHYLRE [M55I]	-0.431 ± 0.18
NMTTNERRVIVPADPTLWSTDHVRQWLEWAVKEYGLPDVNILLFQNIDGKELCKLTKDDFQRLTPSYNADILLSHLHYLRE [M55L]	-0.023 ± 0.059
NMTTNERRVIVPADPTLWSTDHVRQWLEWAVKEYGLPDVNILLFQNIDGKELCKTTKDDFQRLTPSYNADILLSHLHYLRE [M55T]	-0.703 ± 0.18
NMTTNERRVIVPADPTLWSTDHVRQWLEWAVKEYGLPDVNILLFQNIDGKELCKWTKDDFQRLTPSYNADILLSHLHYLRE [M55W]	-0.091 ± 0.069
NMTTNERRVIVPADPTLWSTDHVRQWLEWAVKEYGLPDVNILLFQNIDGKELCKGTKDDFQRLTPSYNADILLSHLHYLRE [M55G]	-0.807 ± 0.087
NMTTNERRVIVPADPTLWSTDHVRQWLEWAVKEYGLPDVNILLFQNIDGKELCKMTIDDFQRLTPSYNADILLSHLHYLRE [K57I]	0.18 ± 0.12
NMTTNERRVIVPADPTLWSTDHVRQWLEWAVKEYGLPDVNILLFQNIDGKELCKMTLDDFQRLTPSYNADILLSHLHYLRE [K57L]	-0.084 ± 0.055
